Measurements from patent US20200299372A1 (ADRENOMED, published 2020).
Where two headings read alike, the source gives them in different places. No end group written: not given here.

What was measured:
[1] = molecular target: T1, human recombinant adrenomedullin receptor (CRLR + RAMP3) (human); assay: cell-based or functional assay
[2] = molecular target: T1, human recombinant adrenomedullin …; assay: cell-based or functional assay; remark: listed apart in the source

T1 sequence (Q16602 whole entry, chain 1 of 2): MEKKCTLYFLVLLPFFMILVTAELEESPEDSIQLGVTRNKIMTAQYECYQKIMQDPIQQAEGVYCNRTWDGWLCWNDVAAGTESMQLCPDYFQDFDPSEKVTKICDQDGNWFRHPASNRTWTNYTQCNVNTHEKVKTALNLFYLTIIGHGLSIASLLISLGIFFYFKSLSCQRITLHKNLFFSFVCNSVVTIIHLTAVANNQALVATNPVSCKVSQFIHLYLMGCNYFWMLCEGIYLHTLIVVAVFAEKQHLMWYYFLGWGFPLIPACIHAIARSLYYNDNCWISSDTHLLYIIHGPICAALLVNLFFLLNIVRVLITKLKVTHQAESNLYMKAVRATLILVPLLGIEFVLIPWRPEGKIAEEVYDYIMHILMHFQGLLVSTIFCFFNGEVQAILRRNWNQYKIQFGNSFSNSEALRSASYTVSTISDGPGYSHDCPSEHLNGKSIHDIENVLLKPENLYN
T1 sequence (O60896 whole entry, chain 2 of 2, further chain): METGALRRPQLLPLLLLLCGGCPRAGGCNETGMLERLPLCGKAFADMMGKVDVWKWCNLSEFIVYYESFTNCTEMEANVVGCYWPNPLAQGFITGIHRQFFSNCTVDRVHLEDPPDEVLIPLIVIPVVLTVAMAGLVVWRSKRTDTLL

Binder	EC50 (read off the curve) [1]	EC50 (read off the curve) [2]
mature human Adrenomedullin (Human ADM 1-52) (ends and bridges not checked) peptide: YRQSMNNFQGLRSFGCRFGTCTVQKLAHQIYQFTDKDKDNVAPRSKISPQGY-NH2	~1 nM	
YRQSMNQGSRSNGCRFGTCTFQKLAHQIYQLTDKDKDGMAPRNKISPQGY-NH2 (ends and bridges not checked) [Murine ADM 1-50]		~0.09 nM
